Data: US20140256912A1, “Stabilized Variant MAML Peptides and Uses Thereof” (PRESIDENT AND FELLOWS OF HARVARD COLLEGE, priority 2011, published 2014)
Bridge positions count the residues as written; N and C are the ends. Square brackets hold non-standard residues; d marks the D form. Ends that are not written are not given here. S5 = C=CCCC[C@](C)(N)C(=O)O; βAla = NCCC(=O)O

Tests used:
[1] = target: T1, Bio-sdnMAML1 binding to GST-RAMANK1-CSL (Homo sapiens, UniProt P46531+Q06330); experiment: ALPHAscreen NTC competition assay; conditions: titration of unlabeled peptide (FIG. 2h)
T1 construct: RAMANK1 (residues 1761-2127) and GST-labeled RAMANK1; Human CSL bearing a C-terminal hexahistidine tag (residues 9-435); hexahistidine (His6) (C); made in house; host or cells: E. coli BL21(DE3) pLysS (proteins); solid-phase peptide synthesis (Bio-sdnMAML1)
T1 sequence (P46531 1760-2126): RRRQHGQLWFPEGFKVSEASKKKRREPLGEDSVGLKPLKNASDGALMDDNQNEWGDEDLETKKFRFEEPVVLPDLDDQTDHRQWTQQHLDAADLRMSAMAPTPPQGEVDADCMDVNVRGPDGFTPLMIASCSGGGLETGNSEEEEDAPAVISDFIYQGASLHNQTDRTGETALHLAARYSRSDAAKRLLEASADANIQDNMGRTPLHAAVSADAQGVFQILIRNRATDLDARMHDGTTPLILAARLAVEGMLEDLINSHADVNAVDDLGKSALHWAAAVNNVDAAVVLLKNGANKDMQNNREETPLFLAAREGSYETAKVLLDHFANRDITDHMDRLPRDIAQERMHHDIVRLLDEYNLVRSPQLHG
T1 sequence (Q06330 23-449): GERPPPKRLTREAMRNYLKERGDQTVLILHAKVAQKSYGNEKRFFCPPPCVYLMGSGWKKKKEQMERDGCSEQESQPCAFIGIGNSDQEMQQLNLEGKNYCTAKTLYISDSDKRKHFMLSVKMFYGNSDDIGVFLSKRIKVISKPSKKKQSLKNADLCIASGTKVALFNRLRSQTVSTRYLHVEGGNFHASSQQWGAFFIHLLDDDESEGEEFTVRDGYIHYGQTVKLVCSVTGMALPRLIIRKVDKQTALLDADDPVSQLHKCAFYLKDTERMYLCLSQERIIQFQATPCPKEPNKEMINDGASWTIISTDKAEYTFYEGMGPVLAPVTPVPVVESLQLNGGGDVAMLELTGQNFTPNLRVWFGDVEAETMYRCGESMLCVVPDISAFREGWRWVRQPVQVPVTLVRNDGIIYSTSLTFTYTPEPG
Excerpt: The biophysics of NTC assembly has been studied using relatively low-throughput assays including electrophoretic-mobility shift assays^24, isothermal titration calorimetry^49, and various immunoprecipitation strategies. More recently, Del Bianco et al. reported the use of a FRET-based system measuring the proximity of a donor fluorophore-labeled ANK protein to an acceptor-labeled oligonucleotide upon NTC assembly, which allowed determination of relative equilibrium constants for the entire complex^45. We also reported the use of surface plasmon resonance (SPR) and fluorescence polarization assays measuring the association of NTC components with each other and with stapled peptides^37. To date however, there are no high-throughput assays reported that quantitatively measure dnMAML1-NOTCH-CSL complex formation. […] The ALPHAscreen technology (ALPHA meaning amplified luminescence proximity homogenous assay) employs functionalized beads approximately 200 nm in diameter to detect the association of cognate binding partners in solution^50,51. […] The use of microwave-assisted peptide synthesis and a slightly altered SPPS protocol readily afforded the biotinylated sdnMAML1 peptide (bio-sdnMAML1, and others with alternative N-terminal modifications) at greater than 95% purity by LCMS analysis (FIG. 2b, FIG. 7). […]

ICN1-CSL complex = ICN1-CSL complex (Homo sapiens, UniProt P46531+Q06330); conditions: cited from earlier work
ICN1-CSL complex, sequence (P46531 1754-2555 limits assumed): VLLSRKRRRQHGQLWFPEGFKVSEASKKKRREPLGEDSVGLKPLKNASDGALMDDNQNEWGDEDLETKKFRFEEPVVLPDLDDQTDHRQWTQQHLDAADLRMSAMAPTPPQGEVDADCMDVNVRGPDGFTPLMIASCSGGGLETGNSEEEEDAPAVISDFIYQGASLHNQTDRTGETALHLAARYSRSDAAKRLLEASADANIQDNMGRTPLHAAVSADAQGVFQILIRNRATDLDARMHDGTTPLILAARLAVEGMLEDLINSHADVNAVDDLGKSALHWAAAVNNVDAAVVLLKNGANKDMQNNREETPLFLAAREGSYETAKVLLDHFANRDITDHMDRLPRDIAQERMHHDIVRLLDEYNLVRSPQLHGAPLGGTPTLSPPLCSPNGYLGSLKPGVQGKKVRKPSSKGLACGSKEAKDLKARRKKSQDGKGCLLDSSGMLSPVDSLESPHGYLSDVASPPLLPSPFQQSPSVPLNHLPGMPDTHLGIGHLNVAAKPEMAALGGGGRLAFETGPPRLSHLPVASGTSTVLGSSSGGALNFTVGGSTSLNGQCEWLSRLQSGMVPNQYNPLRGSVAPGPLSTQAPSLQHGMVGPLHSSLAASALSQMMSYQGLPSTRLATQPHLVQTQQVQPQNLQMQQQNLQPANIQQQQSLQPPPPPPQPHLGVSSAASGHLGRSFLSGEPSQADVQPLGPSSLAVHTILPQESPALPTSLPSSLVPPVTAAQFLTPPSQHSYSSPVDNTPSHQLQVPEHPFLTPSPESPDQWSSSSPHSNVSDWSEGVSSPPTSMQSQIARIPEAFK
ICN1-CSL complex, sequence (Q06330 whole entry): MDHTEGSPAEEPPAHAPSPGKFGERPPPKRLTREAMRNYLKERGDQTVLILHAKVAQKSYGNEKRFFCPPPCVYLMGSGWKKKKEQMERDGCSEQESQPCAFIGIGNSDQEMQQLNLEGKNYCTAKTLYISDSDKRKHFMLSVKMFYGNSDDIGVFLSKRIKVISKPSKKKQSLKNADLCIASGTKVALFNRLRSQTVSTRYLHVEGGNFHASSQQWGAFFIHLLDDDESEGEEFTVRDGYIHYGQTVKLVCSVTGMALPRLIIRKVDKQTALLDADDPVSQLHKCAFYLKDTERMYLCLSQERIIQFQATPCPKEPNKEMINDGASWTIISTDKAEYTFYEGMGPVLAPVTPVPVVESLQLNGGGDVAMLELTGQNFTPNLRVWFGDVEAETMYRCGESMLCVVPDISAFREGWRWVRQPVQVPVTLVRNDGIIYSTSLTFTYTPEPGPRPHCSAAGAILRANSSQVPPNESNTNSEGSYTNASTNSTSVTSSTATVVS

[2] = tested on: Notch target genes (HES1, MYC, DTX1); conditions: incubated with human T-ALL cells; cited from earlier work

Substance | dissociation of pre-incubated bio-sdnMAML1-GSTRAMANK1-CSL complex [1] | binding to ICN1-CSL complex and competition with MAML1 (ICN1-CSL complex) | expression of canonical Notch target genes [2]
Ac-sdnMAML1: non-labeled competitor dnMAML1 peptide capped with an acetylated beta-alanine spacer ({Ac-βAla}-HSAVMERLRRRIELCRRHHSTCEARYEAVSPERLELERQHTFALHQRCIQAKAKR; staple (positions not given here); also: stapled, staple positions not given here) | dose-dependent dissociation of the complex |  | 
SAHM1: stapled MAML1 E21-T36 peptide with E28 and R32 replaced by i→i+4 ligated α,α-disubstituted S5 amino acids; previously reported (Ac-W[βAla]ERLRRRI[S5]LCR[S5]HHST; staple 10-14) |  | specifically bind the ICN1-CSL complex and competitively inhibit binding of recombinant dnMAML1 as well as full-length MAML1 | inhibit the expression of a panel of canonical Notch target genes
